Measured values from publication PMC3964825.

Legend:
Assay in all cases: EMSA
EZH2-EED = EZH2-EED (UniProt Q15910;O75530 1-746;1-441)
LSD1 = LSD1 (UniProt O60341 1-852)
PRC2 3m (EZH2-EED-SUZ12) = PRC2 3m (EZH2-EED-SUZ12) (UniProt Q15910;O75530;Q15022 1-746;1-441;1-739)
PRC2 3m (EZH2-EED-SUZ12), sequence (Q15910 whole entry, chain 1 of 3): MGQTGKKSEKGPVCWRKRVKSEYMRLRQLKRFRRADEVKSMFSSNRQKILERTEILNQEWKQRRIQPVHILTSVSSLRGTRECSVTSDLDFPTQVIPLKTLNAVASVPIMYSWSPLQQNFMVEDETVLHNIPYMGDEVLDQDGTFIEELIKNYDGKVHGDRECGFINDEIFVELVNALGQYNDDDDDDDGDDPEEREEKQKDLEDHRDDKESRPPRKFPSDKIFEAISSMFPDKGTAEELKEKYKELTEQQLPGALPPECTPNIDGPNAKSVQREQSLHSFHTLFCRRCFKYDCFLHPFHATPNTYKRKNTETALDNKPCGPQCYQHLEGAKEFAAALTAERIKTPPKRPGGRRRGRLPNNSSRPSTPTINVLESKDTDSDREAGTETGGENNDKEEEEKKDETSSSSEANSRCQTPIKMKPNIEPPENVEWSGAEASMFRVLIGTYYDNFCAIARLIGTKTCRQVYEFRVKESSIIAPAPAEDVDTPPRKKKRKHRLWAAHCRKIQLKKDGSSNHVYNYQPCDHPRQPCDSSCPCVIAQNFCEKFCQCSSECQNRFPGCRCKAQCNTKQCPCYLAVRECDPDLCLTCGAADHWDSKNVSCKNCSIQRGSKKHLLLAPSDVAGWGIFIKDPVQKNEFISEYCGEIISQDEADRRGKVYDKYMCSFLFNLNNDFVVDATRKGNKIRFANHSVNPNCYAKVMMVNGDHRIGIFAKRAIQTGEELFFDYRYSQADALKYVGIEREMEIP
PRC2 3m (EZH2-EED-SUZ12), sequence (O75530 whole entry, chain 2 of 3): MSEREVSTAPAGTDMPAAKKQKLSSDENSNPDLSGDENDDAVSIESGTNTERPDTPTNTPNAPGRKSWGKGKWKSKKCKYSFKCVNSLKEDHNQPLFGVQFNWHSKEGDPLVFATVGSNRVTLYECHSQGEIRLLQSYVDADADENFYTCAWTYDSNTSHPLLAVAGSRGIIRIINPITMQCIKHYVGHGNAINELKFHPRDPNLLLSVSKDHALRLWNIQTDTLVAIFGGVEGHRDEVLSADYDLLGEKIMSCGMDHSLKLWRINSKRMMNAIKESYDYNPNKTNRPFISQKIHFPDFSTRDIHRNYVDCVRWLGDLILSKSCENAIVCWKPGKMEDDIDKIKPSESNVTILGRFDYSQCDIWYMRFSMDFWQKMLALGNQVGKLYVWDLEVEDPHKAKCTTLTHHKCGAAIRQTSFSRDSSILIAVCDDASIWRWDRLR
PRC2 3m (EZH2-EED-SUZ12), sequence (Q15022 whole entry, chain 3 of 3): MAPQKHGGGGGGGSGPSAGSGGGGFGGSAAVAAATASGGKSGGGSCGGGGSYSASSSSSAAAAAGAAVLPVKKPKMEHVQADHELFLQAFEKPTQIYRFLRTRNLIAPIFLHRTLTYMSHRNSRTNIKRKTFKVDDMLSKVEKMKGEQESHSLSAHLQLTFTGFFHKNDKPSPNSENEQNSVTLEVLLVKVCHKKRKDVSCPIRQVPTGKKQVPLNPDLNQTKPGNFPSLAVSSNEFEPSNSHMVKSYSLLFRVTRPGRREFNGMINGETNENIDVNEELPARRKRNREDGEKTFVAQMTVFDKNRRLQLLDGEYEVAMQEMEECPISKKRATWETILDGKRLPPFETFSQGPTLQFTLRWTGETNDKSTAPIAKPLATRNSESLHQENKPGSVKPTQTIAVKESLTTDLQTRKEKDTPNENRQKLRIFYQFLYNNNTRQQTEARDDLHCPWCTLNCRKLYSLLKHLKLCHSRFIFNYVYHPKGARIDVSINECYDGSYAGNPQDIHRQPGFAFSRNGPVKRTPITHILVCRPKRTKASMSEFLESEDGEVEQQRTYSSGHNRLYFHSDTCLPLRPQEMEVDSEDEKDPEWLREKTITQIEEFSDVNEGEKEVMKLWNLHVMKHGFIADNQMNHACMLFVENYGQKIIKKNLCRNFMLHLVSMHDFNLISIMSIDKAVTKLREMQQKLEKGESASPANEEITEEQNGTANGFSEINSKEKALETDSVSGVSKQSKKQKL

EZH2-EED, sequence (Q15910 whole entry, chain 1 of 2): as the sequence (Q15910 whole entry, chain 1 of 3) above
EZH2-EED, sequence (O75530 whole entry, chain 2 of 2): as the sequence (O75530 whole entry, chain 2 of 3) above

Binder | binding result (EZH2-EED) | binding result (LSD1) | Kd (EZH2-EED) | Kd (PRC2 3m (EZH2-EED-SUZ12))
HOTAIR 1-100 (structured_RNA) RNA: GACUCGCCUGUGCUCUGGAGCUUGAUCCGAAAGCUUCCACAGUGAGGACUGCUCCGUGGGGGUAAGAGAGCACCAGGCACUGAGGCCUGGGAGUUCCACA | no binding |  |  | 
HOTAIR 212-300 (minHOTAIR) (structured_RNA) RNA: GGAACGGAUUUAGAAGCCUGCAGUAGGGGAGUGGGGAGUGGAGAGAGGGAGCCCAGAGUUACAGACGGCGGCGAGAGGAAGGAGGGGCGGAU |  | no binding | 135 ± 20 nM | 111 ± 10 nM
HOTAIR 201-300 (structured_RNA) RNA: GCAGUGGAAUGGAACGGAUUUAGAAGCCUGCAGUAGGGGAGUGGGGAGUGGAGAGAGGGAGCCCAGAGUUACAGACGGCGGCGAGAGGAAGGAGGGGCGGAU |  |  | 157 ± 12 nM | 
HOTAIR 101-300 (structured_RNA) RNA: GACCAACACCCCUGCUCCUGGCGGCUCCCACCCGGGGCUUAGACCCUCAGGUCCCUAAUAUCCCGGAGGUGCUCUCAAUCAGAAAGGUCCUGCUCCGCUUCGCAGUGGAAUGGAACGGAUUUAGAAGCCUGCAGUAGGGGAGUGGGGAGUGGAGAGAGGGAGCCCAGAGUUACAGACGGCGGCGAGAGGAAGGAGGGGCGGAU |  |  | 119 ± 18 nM | 
